From patent US20190338048A1
Where two headings read alike, the source gives them in different places.

What was measured:
[1] = biological target: Pertuzumab kappa light chain V133A_S176K (L2), HA-tagged; assay: LCCA, SPR of light-chain tags
[2] = biological target: Pertuzumab kappa light chain V133G_S176R (L2), HA-tagged; assay: LCCA, SPR of light-chain tags
[3] = biological target: Pertuzumab kappa light chain V133A_S176K (L2), HA-tagged; assay: LCCA, SPR of light-chain tags; remark: listed apart in the source
[4] = biological target: Pertuzumab kappa light chain V133G_S176R (L2), HA-tagged; assay: LCCA, SPR of light-chain tags; remark: listed apart in the source
[5] = biological target: Pertuzumab kappa light chain S131K_V133G_S176R (L2), HA-tagged; assay: LCCA, SPR of light-chain tags
[6] = biological target: Pertuzumab kappa light chain S131R_V133G_S176R (L2), HA-tagged; assay: LCCA, SPR of light-chain tags
[7] = biological target: Pertuzumab kappa light chain S131K_V133G_S176R (L2), HA-tagged; assay: LCCA, SPR of light-chain tags; remark: listed apart in the source
[8] = biological target: Pertuzumab kappa light chain S131R_V133G_S176R (L2), HA-tagged; assay: LCCA, SPR of light-chain tags; remark: listed apart in the source
[9] = biological target: Pertuzumab kappa light chain S131K_V133G_S176R (L2), HA-tagged; assay: LCCA, SPR of light-chain tags; remark: listed apart in the source
[10] = biological target: Pertuzumab kappa light chain S131R_V133G_S176R (L2), HA-tagged; assay: LCCA, SPR of light-chain tags; remark: listed apart in the source
[11] = biological target: CAT-2200 lambda light chain S176E_Y178E (L1), FLAG-tagged; assay: LCCA, SPR of light-chain tags
[12] = biological target: CAT-2200 lambda light chain V133L_S176D_Y178E (L1), FLAG-tagged; assay: LCCA, SPR of light-chain tags
[13] = biological target: Pertuzumab kappa light chain S131K_V133G_S176R_T178A (L2), HA-tagged; assay: LCCA, SPR of light-chain tags
[14] = biological target: Pertuzumab kappa light chain S131R_V133G_S176R_T178A (L2), HA-tagged; assay: LCCA, SPR of light-chain tags
[15] = biological target: Pertuzumab kappa light chain S131K_V133G_S176R_T178A (L2), HA-tagged; assay: LCCA, SPR of light-chain tags; remark: listed apart in the source
[16] = biological target: Pertuzumab kappa light chain S131R_V133G_S176R_T178A (L2), HA-tagged; assay: LCCA, SPR of light-chain tags; remark: listed apart in the source
[17] = biological target: CAT-2200 lambda light chain S176E_Y178E (L1), FLAG-tagged; assay: LCCA, SPR of light-chain tags; remark: listed apart in the source
[18] = biological target: CAT-2200 lambda light chain V133L_S176D_Y178E (L1), FLAG-tagged; assay: LCCA, SPR of light-chain tags; remark: listed apart in the source
[19] = biological target: Pertuzumab kappa light chain V133A_S176K_T178A (L2), HA-tagged; assay: LCCA, SPR of light-chain tags
[20] = biological target: Pertuzumab kappa light chain V133G_S176R_T178A (L2), HA-tagged; assay: LCCA, SPR of light-chain tags
[21] = biological target: Pertuzumab kappa light chain V133A_S176K_T178A (L2), HA-tagged; assay: LCCA, SPR of light-chain tags; remark: listed apart in the source
[22] = biological target: Pertuzumab kappa light chain V133G_S176R_T178A (L2), HA-tagged; assay: LCCA, SPR of light-chain tags; remark: listed apart in the source
[23] = biological target: CAT-2200 lambda light chain S176E_Y178E (L1), FLAG-tagged; assay: LCCA, SPR of light-chain tags; remark: listed apart in the source
[24] = biological target: CAT-2200 lambda light chain V133L_S176D_Y178E (L1), FLAG-tagged; assay: LCCA, SPR of light-chain tags; remark: listed apart in the source
[25] = biological target: Pertuzumab kappa light chain Q124R_Q160K_T178R (L2), HA-tagged; assay: LCCA, SPR of light-chain tags
[26] = biological target: Pertuzumab kappa light chain Q124R_T178R (L2), HA-tagged; assay: LCCA, SPR of light-chain tags
[27] = biological target: Pertuzumab kappa light chain Q124R_Q160K_T178R (L2), HA-tagged; assay: LCCA, SPR of light-chain tags; remark: listed apart in the source
[28] = biological target: Pertuzumab kappa light chain Q124R_T178R (L2), HA-tagged; assay: LCCA, SPR of light-chain tags; remark: listed apart in the source
[29] = biological target: Pertuzumab kappa light chain V133D (L2), N-terminal HA tag; assay: LCCA, SPR of light chain tags
[30] = biological target: Pertuzumab kappa light chain V133D (L2), N-terminal HA tag; assay: LCCA, SPR of light chain tags; remark: listed apart in the source
[31] = biological target: CAT-2200 lambda light chain S176K_Y178K (L1), N-terminal FLAG tag; assay: LCCA, SPR of light chain tags
[32] = biological target: CAT-2200 lambda light chain S176A_Y178W (L1), FLAG-tagged; assay: LCCA, SPR of light-chain tags
[33] = biological target: Pertuzumab kappa light chain S176A_T178A (L2), HA-tagged; assay: LCCA, SPR of light-chain tags
[34] = biological target: Pertuzumab kappa light chain Q124E_Q160E_S176A_T178A_T180E (L2), N-terminal HA tag; assay: LCCA, SPR of light chain tags

Work on Pertuzumab Fab heavy chain L124E (H2) yielded an H2L2:H2L1 normalized median scalar value ln(r1/f1) [1] of -0.15, an H2L2:H2L1 normalized median scalar value ln(r1/f1) [2] of 0.25 and an H2L2:H2L1 normalized median scalar value ln(r1/f1) [3] of 1.69. It also gave an H2L2:H2L1 normalized median scalar value ln(r1/f1) [4] of 2.32.

“Pertuzumab Fab heavy chain L124E_K145T_Q179E (H2)” was tested, and the H2L2:H2L1 normalized median scalar value ln(r1/f1) [5] was 2.21, the H2L2:H2L1 normalized median scalar value ln(r1/f1) [6] was 2.51 and the H2L2:H2L1 normalized median scalar value ln(r1/f1) [7] was 2.94. The H2L2:H2L1 normalized median scalar value ln(r1/f1) [8] was 2.85, the H2L2:H2L1 normalized median scalar value ln(r1/f1) [9] was 2.41 and the H2L2:H2L1 normalized median scalar value ln(r1/f1) [10] was 2.42.

“Pertuzumab Fab heavy chain L124E_K145T_Q179E_S188W (H2)” gave an H2L2:H2L1 normalized median ratio (H2L1 share) [11] of 15%, an H2L2:H2L1 normalized median ratio (H2L1 share) [12] of 12% and an H2L2:H2L1 normalized median ratio, H2L2 share [13] of 85%. It also gave an H2L2:H2L1 normalized median scalar value ln(r1/f1) [13] of 1.77, an H2L2:H2L1 normalized median ratio, H2L2 share [14] of 89% and an H2L2:H2L1 normalized median scalar value ln(r1/f1) [14] of 2.13. For the same substance, the H2L2:H2L1 normalized median ratio, H2L2 share [15] was 88%, the H2L2:H2L1 normalized median scalar value ln(r1/f1) [15] was 1.98 and the H2L2:H2L1 normalized median ratio, H2L2 share [16] was 92%. It also gave an H2L2:H2L1 normalized median scalar value ln(r1/f1) [16] of 2.4, an H2L2:H2L1 normalized median ratio (H2L1 share) [17] of 11% and an H2L2:H2L1 normalized median ratio (H2L1 share) [18] of 8%.

With “Pertuzumab Fab heavy chain L124E_S188W (H2)” the H2L2:H2L1 normalized median ratio (H2L1 share) [11] was 46%, the H2L2:H2L1 normalized median ratio (H2L1 share) [12] was 15% and the H2L2:H2L1 normalized median ratio, H2L2 share [19] was 54%. The H2L2:H2L1 normalized median scalar value ln(r1/f1) [19] was 0.18, the H2L2:H2L1 normalized median ratio, H2L2 share [20] was 54% and the H2L2:H2L1 normalized median scalar value ln(r1/f1) [20] was 0.15. For the same substance, the H2L2:H2L1 normalized median ratio, H2L2 share [21] was 85%, the H2L2:H2L1 normalized median scalar value ln(r1/f1) [21] was 1.71 and the H2L2:H2L1 normalized median ratio, H2L2 share [22] was 86%. The H2L2:H2L1 normalized median scalar value ln(r1/f1) [22] was 1.84, the H2L2:H2L1 normalized median ratio (H2L1 share) [23] was 46% and the H2L2:H2L1 normalized median ratio (H2L1 share) [24] was 14%.

With “Pertuzumab Fab heavy chain L143E_K145T_Q179E (H2)” the H2L2:H2L1 normalized median scalar value ln(r1/f1) [25] was 2.62, the H2L2:H2L1 normalized median scalar value ln(r1/f1) [26] was 2.22 and the H2L2:H2L1 normalized median scalar value ln(r1/f1) [27] was 3.21. For the same substance, the H2L2:H2L1 normalized median scalar value ln(r1/f1) [28] was 3.16.

With “Pertuzumab Fab heavy chain S186K_S188T (H2), ABD2-His6 tagged” the H2L2:H2L1 normalized median ratio [29] was 70%, the H2L2:H2L1 normalized median scalar value ln(r1/f1) [29] was 0.85 and the H2L2:H2L1 normalized median ratio [30] was 62%. For the same substance, the H2L2:H2L1 normalized median scalar value ln(r1/f1) [30] was 0.49 and the H2L2:H2L1 normalized median ratio [31] was 38%.

Work on “Pertuzumab Fab heavy chain S186L_S188W (H2)” yielded an H2L2:H2L1 normalized median ratio (H2L1 share) [32] of 33%, an H2L2:H2L1 normalized median ratio, H2L2 share [33] of 67% and an H2L2:H2L1 normalized median scalar value ln(r1/f1) [33] of 0.7.

“Pertuzumab Fab heavy chain S186R_S188W (H2), ABD2-His6 tagged” gave an H2L2:H2L1 normalized median scalar value ln(r1/f1) [34] of 2.64.
